Measurements reported in paper PMC3950709 (Nucleic Acids Research, 2013).
Residue numbers refer to the chain shown, from its start. Numbers in names are those of the source. Like-named read-outs stand apart in the source and are kept apart here. Blank lines part the entries; values can stand above or below the molecule they belong to.

Legend:
[1] = biological target: rabbit IFIT1B (rIFIT1B), recombinant (rabbit); assay: native gel or EMSA
[2] = biological target: native rabbit IFIT1B (native rIFIT1B) (rabbit (endogenous in rabbit reticulocyte lysate)); assay: native gel or EMSA
native gel or EMSA [3] = biological target: the molecule itself; assay: native gel or EMSA
native gel or EMSA [4] = biological target: the molecule itself; assay: native gel or EMSA; remark: listed apart in the source
hIFIT2 = biological target: T1, hIFIT2 (Homo sapiens, UniProt P09913 1-472); assay: EMSA
T1 sequence: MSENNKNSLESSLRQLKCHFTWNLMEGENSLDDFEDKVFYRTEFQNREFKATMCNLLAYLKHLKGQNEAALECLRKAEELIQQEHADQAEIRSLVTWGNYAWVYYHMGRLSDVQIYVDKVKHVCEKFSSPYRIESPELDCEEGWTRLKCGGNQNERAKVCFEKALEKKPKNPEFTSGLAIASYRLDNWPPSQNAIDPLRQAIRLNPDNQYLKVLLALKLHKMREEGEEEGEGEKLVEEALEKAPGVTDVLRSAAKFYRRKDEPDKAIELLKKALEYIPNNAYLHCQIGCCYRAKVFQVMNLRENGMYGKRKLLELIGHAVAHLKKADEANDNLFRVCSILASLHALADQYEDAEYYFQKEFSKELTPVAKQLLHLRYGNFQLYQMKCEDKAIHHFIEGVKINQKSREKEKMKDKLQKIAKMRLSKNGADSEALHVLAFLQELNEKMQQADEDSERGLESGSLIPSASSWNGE

hIFIT3 = biological target: T2, hIFIT3 (Homo sapiens, UniProt O14879 1-490); assay: EMSA
T2 sequence: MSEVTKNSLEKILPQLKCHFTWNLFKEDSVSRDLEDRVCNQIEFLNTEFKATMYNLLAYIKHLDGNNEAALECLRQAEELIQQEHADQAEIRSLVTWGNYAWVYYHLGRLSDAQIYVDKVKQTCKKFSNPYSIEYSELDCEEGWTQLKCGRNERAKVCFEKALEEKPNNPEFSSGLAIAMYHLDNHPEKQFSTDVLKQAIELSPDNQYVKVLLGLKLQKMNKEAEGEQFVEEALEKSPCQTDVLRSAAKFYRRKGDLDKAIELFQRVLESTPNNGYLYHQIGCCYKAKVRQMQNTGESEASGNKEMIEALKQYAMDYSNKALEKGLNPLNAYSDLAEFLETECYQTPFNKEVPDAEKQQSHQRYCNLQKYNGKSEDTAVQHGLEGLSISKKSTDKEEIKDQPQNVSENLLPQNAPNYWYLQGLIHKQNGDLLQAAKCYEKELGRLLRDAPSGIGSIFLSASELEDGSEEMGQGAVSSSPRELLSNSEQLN

hIFIT5 = biological target: T3, hIFIT5 (Homo sapiens, UniProt Q13325 1-482); assay: EMSA
T3 sequence: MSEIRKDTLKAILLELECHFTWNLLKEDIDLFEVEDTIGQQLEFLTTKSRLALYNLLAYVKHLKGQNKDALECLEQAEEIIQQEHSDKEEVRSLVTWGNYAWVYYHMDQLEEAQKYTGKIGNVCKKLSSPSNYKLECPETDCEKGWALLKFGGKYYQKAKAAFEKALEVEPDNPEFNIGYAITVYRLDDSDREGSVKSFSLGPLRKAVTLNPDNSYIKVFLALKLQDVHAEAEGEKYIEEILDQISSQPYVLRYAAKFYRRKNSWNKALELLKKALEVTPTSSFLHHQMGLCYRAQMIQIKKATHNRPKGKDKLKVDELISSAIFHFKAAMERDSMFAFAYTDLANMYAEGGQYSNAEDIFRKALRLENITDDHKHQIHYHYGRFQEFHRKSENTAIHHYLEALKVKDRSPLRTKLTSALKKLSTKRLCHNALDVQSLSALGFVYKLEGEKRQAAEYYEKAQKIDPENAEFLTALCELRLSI

hIFIT1 [5] = biological target: T4, hIFIT1 (Homo sapiens, UniProt P09914 1-478); assay: EMSA
T4 sequence: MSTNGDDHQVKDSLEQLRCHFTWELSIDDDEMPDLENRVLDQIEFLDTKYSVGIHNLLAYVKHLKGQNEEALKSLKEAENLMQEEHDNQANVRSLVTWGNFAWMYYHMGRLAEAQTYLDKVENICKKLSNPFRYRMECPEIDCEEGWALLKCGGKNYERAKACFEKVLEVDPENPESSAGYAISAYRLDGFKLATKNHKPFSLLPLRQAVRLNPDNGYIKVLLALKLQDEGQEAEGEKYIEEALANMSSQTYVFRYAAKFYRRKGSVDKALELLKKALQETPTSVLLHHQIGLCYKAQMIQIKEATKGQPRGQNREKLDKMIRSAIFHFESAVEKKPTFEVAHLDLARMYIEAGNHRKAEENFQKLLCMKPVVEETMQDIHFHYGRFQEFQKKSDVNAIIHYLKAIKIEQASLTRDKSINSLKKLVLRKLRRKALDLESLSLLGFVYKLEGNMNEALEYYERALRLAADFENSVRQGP

hIFIT1 [6] = biological target: T4, hIFIT1; assay: EMSA; remark: listed apart in the source

stoichiometry N [1]: 2
Molecule: rabbit IFIT1B (rIFIT1B), recombinant (natural protein)

stoichiometry N [2]: 2
Molecule: native rabbit IFIT1B (native rIFIT1B) (natural protein)

B1: human IFIT2 (hIFIT2), recombinant (natural protein, UniProt P09913 1-472, looked up)
chain: T1 sequence
stoichiometry N (native gel or EMSA [3]): 2

B2: human IFIT3 (hIFIT3), recombinant (natural protein, UniProt O14879 1-490, looked up)
chain: T2 sequence
binding result (native gel or EMSA [3]): binds

B3: human IFIT1 (hIFIT1), recombinant wild type (natural protein, UniProt P09914 1-478, looked up)
chain: T4 sequence
binding result (native gel or EMSA [4]): binds

B4: hIFIT1 Y218A (natural protein, human, UniProt P09914 1-478, looked up)
chain: T4 sequence with Y218A
binding result (native gel or EMSA [3]): binds

B5: hIFIT1 Y50A (natural protein, human, UniProt P09914 1-478, looked up)
chain: T4 sequence with Y50A
binding result (native gel or EMSA [3]): binds

B6: hIFIT1 W147L (natural protein, human, UniProt P09914 1-478, looked up)
chain: T4 sequence with W147L
binding result (native gel or EMSA [3]): binds

B7: hIFIT1 F45A (natural protein, human, UniProt P09914 1-478, looked up)
chain: T4 sequence with F45A
binding result (native gel or EMSA [3]): binds

B8: hIFIT1 F45A/Y50A (natural protein, human, UniProt P09914 1-478, looked up)
chain: T4 sequence with F45A, Y50A
binding result (native gel or EMSA [3]): binds

B9: cap0 62-nt β-globin(G) RNA (ssRNA)
RNA: GACACUUGCUUUUGACACAACUGUGUUUACUUGCAAUCCCCCAAAACAGACAGAAUGGUGCA
modifications: m7Gppp cap0
binding result (hIFIT2): no binding
binding result (hIFIT3): no binding
binding result (hIFIT5): no binding
binding result (hIFIT1 [5]): binds

B10: cap1 62-nt β-globin(G) RNA (ssRNA)
RNA: B9 RNA
modifications: m7GpppGm cap1
binding result (hIFIT2): no binding
binding result (hIFIT3): no binding
binding result (hIFIT5): no binding
binding result (hIFIT1 [6]): no binding
